Patent publication EP2014310A2 (Dyax Corporation, dated 2009)
Where two headings read alike, the source gives them in different places. Bridge positions count the residues as written; N and C are the ends. Side chains are listed from the residue outwards. I, II: the chains in the order shown. * marks the point of attachment. Biotin = O=C1N[C@H]2[C@H](CS[C@H]2CCCCC(=O)*)N1; ivDde = CC(C)CC(=C1C(=O)CC(C)(C)CC1=O)*; AEEA = NCCOCCOCC(=O)O

How the values were obtained:
[1] = target: T1, human KDR-Fc fusion (R&D Systems #357-KD-050) (human, UniProt P35968 20-764); assay: phage binding screen on KDR-Fc; class legend in paragraph 246
T1 construct: bought

[2] = target: T1, human KDR-Fc fusion (R&D Systems …); assay: as above; remark: listed apart in the source
[3] = target: KDR on human umbilical vein endothelial cells (HUVECs) (human, UniProt P35968 20-1356); assay: cell-based or functional assay
[4] = target: T1, human KDR-Fc fusion (R&D Systems …); assay: Biacore, KDR-Fc on CM5 chip, unlabeled peptide
[5] = target: T1, human KDR-Fc fusion (R&D Systems …); assay: fluorescence anisotropy, fluorescein-labeled peptide
[6] = target: VEGF165 (Peprotech #100-20) (UniProt P15692-4 27-191); assay: as above
[7] = target: T2, KDR/VEGF complex (KDR-Fc mixed or saturated with VEGF) (human, UniProt P35968 20-764; P15692 27-191); assay: fluorescence anisotropy, fluorescein-labeled peptide, KDR-Fc with two fold excess VEGF
T2 construct: anisotropy: two fold molar excess of VEGF mixed with KDR-Fc; Biacore: KDR-Fc chip saturated with VEGF; also called KDR:VEGF165 complex

[8] = target: T1, human KDR-Fc fusion (R&D Systems …); assay: phage binding screen on KDR-Fc; class legend in paragraph 246; remark: listed apart in the source
[9] = target: KDR on transiently KDR-transfected 293H cells (human) (UniProt P35968); assay: neutravidin-HRP complexes, KDR minus mock 293H cells
Chain of KDR on transiently KDR-transfected 293H cells (human) (P35968 20-1356): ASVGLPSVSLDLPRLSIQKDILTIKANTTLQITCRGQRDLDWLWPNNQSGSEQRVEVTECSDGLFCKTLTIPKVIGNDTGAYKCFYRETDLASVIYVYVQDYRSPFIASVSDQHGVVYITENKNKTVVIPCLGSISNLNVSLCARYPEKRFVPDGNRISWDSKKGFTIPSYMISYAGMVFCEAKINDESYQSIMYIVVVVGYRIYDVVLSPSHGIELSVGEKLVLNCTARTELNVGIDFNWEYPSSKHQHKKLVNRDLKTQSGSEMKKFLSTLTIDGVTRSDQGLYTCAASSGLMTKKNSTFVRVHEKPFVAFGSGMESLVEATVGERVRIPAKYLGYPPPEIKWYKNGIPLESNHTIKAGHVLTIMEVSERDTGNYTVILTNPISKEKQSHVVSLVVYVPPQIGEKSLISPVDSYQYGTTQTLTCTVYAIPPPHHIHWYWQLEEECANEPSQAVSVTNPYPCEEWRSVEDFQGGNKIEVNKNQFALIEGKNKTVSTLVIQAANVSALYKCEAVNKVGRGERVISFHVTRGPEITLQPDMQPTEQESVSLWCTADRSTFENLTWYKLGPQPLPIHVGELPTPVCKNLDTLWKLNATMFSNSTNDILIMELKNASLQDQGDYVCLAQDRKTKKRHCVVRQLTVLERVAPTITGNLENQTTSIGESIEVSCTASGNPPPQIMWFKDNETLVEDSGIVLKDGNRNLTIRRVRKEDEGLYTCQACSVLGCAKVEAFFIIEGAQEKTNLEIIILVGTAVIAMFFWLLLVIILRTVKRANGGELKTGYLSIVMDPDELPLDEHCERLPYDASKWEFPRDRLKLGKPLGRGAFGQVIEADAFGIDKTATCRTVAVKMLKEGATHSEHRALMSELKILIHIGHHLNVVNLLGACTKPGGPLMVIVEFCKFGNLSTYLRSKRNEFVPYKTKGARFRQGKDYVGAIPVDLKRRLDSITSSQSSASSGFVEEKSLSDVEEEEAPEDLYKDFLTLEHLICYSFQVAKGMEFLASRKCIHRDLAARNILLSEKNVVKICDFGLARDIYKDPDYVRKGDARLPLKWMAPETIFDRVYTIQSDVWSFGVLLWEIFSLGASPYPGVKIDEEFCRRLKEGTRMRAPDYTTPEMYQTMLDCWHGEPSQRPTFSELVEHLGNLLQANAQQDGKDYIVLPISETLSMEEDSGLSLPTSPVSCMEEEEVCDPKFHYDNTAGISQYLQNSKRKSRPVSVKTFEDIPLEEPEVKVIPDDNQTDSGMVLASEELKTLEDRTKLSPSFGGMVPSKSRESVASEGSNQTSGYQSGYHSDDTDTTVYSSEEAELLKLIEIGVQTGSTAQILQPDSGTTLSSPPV

T1 sequence (P35968 20-764): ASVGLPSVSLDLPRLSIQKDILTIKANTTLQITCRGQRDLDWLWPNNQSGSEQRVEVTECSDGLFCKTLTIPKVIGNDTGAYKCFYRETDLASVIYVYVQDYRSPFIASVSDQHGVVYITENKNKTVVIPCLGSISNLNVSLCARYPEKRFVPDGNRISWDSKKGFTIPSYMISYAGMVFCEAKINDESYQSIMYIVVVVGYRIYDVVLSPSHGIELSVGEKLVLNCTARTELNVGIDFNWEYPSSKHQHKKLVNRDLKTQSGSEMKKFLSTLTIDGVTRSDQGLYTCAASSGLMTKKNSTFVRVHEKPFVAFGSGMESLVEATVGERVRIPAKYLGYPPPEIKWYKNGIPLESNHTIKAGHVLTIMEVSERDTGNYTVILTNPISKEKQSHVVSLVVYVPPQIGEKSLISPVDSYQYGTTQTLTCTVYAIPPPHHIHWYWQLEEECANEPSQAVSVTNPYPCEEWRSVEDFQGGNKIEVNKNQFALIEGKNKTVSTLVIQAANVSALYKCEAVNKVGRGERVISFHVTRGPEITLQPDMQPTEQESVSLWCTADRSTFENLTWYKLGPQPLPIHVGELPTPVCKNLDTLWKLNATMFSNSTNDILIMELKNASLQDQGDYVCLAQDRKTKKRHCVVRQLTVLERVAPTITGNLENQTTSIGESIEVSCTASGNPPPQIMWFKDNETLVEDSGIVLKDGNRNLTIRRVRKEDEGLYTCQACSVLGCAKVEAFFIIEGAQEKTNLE
Chain of KDR on human umbilical vein endothelial cells (HUVECs) (P35968 20-1356): as the sequence (P35968 20-1356) above
Chain of VEGF165 (Peprotech #100-20) (P15692 other isoform, or with tags, fused parts or gaps limits assumed): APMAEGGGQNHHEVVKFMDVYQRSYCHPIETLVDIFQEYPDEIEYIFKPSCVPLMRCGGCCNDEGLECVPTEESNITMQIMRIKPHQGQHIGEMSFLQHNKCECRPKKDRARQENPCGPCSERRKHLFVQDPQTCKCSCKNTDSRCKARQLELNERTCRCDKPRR
T2 sequence (P35968 20-764, chain 1 of 2): as the sequence (P35968 20-764) above
T2 sequence (P15692 other isoform, or with tags, fused parts or gaps, chain 2 of 2): as the sequence (P15692 other isoform, or with tags, fused parts or gaps limits assumed) above

PWTCWLEDHLACAML [phage isolate PWTCWLEDHLACAML]
binding result [1]: binds

QIEYVNDKWYWTGGYWNVPF [phage isolate QIEYVNDKWYWTGGYWNVPF]
binding result [2]: binds

Ac-GDPDTCTMWGDSGRWYCFPADPGGGK-NH2 (disulfide 6-17 (inferred); not fully specified) [SEQ ID NO:301]
VEGF-induced KDR phosphorylation in HUVECs [3]: ≥ 50 % inhibition at 10 µM | Kd [4]: 260 nM | Kd [5]: 490 nM

WESDYWDQMRQQLKTAYMKV [phage isolate WESDYWDQMRQQLKTAYMKV]
binding result [2]: binds

VSKGSIDVGEGISYWEIIEL [phage isolate VSKGSIDVGEGISYWEIIEL]
binding result [2]: binds

B1: SEQ ID NO:324 (peptide)
peptide: Ac-AGGHPCKGMLPHTCWYEGTGGGK-NH2
modifications: disulfide 6-14 (inferred); not fully specified; also: C-terminal Lys fluorescein-labeled in some assay forms
binding result [6]: no binding | Kd [7]: 3300 nM

Ac-AQGDYVYWEIIELTGATDHTPPGGK-NH2 (not fully specified) [SEQ ID NO:307]
VEGF-induced KDR phosphorylation in HUVECs [3]: ≥ 50 % inhibition at 10 µM | Kd [5]: 180 nM

Ac-GDGWACAKWPWGGEICQPSDPGGGK-NH2 (disulfide 6-16 (inferred); not fully specified) [SEQ ID NO:300]
Kd [4]: 1500 nM | Kd [5]: 1000 nM

WIECNKDGKCWHY [phage isolate WIECNKDGKCWHY]
binding result [8]: binds

WVECNHKGLCREY [phage isolate WVECNHKGLCREY]
binding result [8]: binds

Ac-GDWWECK(ivDde)REEYRNTTWCAWADPGGGK-NH2 (disulfide 6-17 (inferred)) [Ac-GDWWECK(ivDde)REEYRNTTWCAWADPGGGK-NH2 (SEQ ID NO:366 having a blocked K)]
VEGF-induced KDR phosphorylation in HUVECs [3]: ≥ 50 % inhibition at 10 µM

Ac-AQDWYYDEILSMADQLRHAFLSGGGK-NH2 (not fully specified) [SEQ ID NO:310]
Kd [4]: 50 nM

Ac-AQEPEGYAYWEVITLYHEEDGDGGK-NH2 (not fully specified) [SEQ ID NO:305]
VEGF-induced KDR phosphorylation in HUVECs [3]: ≥ 50 % inhibition at 10 µM | Kd [4]: 730 nM | Kd [5]: 270 nM

Ac-GDYPWCHELSDSVTRFCVPWDPGGGK-NH2 (disulfide 6-17 (inferred); not fully specified) [SEQ ID NO:293]
Kd [4]: 180 nM | Kd [5]: 980 nM

Ac-AGWLECYAEFGHCYNFGTGGGK-NH2 (disulfide 6-13 (inferred); not fully specified) [SEQ ID NO:267]
VEGF-induced KDR phosphorylation in HUVECs [3]: ≥ 50 % inhibition at 10 µM

Ac-AGIDFCKGMAPWLCADMGTGGGK-NH2 (disulfide 6-14 (inferred); not fully specified) [SEQ ID NO:311]
Kd [4]: 180 nM | Kd [5]: 730 nM

Ac-AGWIECYHPDGICYHFGTGGGK-NH2 (disulfide 6-13 (inferred); not fully specified) [SEQ ID NO:269]
VEGF-induced KDR phosphorylation in HUVECs [3]: ≥ 50 % inhibition at 10 µM | Kd [4]: 320 nM | Kd [5]: 320 nM

Ac-AQAFPRFGGDDYWIQQYLRYTDGGK-NH2 (not fully specified) [SEQ ID NO:306]
VEGF-induced KDR phosphorylation in HUVECs [3]: ≥ 50 % inhibition at 10 µM | Kd [4]: 250 nM | Kd [5]: 530 nM

MPPGFSYWEQAALHDDAQDL [phage isolate MPPGFSYWEQAALHDDAQDL]
binding result [2]: binds

MPWCSEVTWGWCKLN [phage isolate MPWCSEVTWGWCKLN]
binding result [1]: binds

Ac-AQRGDYQEQYWHQQLVEQLKLLGGK-NH2 (not fully specified) [SEQ ID NO:308]
Kd [4]: 5300 nM | Kd [5]: 310 nM

Ac-AQDWYYDEILSMADQLRHAFLSGGGGGK([AEEA-AEEA-Biotin])-NH2 (peptide, part only; not given: neutravidin-HRP, not shown: large carriers, also: tetrameric complex with neutravidin-HRP) [tetrameric complex of biotinylated SEQ ID NO:356 (JJ spacer) with neutravidin-HRP]
ratio of specific binding to that of monomer (Tetramer) [9]: 16

PEDSEAWYWLNYRPTMFHQL [phage isolate PEDSEAWYWLNYRPTMFHQL]
binding result [2]: binds

LEEVFEDFQDFWYTEHIIVDR [phage isolate LEEVFEDFQDFWYTEHIIVDR]
binding result [2]: binds

TKWGPNPEHWQYWYSHYASS [phage isolate TKWGPNPEHWQYWYSHYASS]
binding result [2]: binds

B2: SEQ ID NO:264 (peptide)
peptide: Ac-AGPKWCEEDWYYCMITGTGGGK-NH2
modifications: cysteine pairing not given here; also: C-terminal Lys fluorescein-labeled for some assays, unlabeled for others
Kd [4]: 27 nM

B3: dimer 25 (D25) (peptide)
peptide 1: Ac-AGPTWCEDDWYYCWLFGTGGGK-NH2
peptide 2: Ac-GDSRVCWEDSWGGEVCFRYDPGGGK-NH2
modifications: disulfide I:6-I:13, II:6-II:16 (inferred); not fully specified (some residues, bridges); printed as Ac-AGPTWCEDDWYYCWLFGTGGGK{Ac-GDSRVCWEDSWGGEVCFRYDPGGGK[JJ-Glut-NH(CH_2)4-(S)-CH(NH_2)C(=O)-]-NH_2}-NH_2; also: heterodimer, chain 2 C-terminal Lys joined to linker
IC50, VEGF-induced migration of HUVECs [3]: 5 nM

VCWEDSWGGEVCFRYDPGGGK [SEQ ID NO:337 monomeric free peptide (VCWEDSWGGEVCFRYDPGGGK)]
IC50, receptor activation assay [3]: 1000 nM

RGPCSGQPWHLCYYQ [phage isolate RGPCSGQPWHLCYYQ]
binding result [1]: binds

RDEWGWTGVPYEGEMGYQIS [phage isolate RDEWGWTGVPYEGEMGYQIS]
binding result [2]: binds

Ac-GDNWECGWSNMFQKEFCARPDPGGGK-NH2 (disulfide 6-17 (inferred); not fully specified) [SEQ ID NO:303]
Kd [4]: 990 nM | Kd [5]: 210 nM

GITCDELGRCVHW [phage isolate GITCDELGRCVHW]
binding result [8]: binds

WYWCEFYGVCSEE [phage isolate WYWCEFYGVCSEE]
binding result [8]: binds

WIQCNHQGQCFHG [phage isolate WIQCNHQGQCFHG]
binding result [8]: binds

Ac-GDGSWCEMRQDVGKWNCFSDDPGGGK-NH2 (disulfide 6-17 (inferred); not fully specified) [SEQ ID NO:299]
Kd [4]: 180 nM | Kd [5]: 620 nM

STNGDSFVYWEEVELVDHPY [phage isolate STNGDSFVYWEEVELVDHPY]
binding result [2]: binds

WYHDGLHNERKPPSHWIDNV [phage isolate WYHDGLHNERKPPSHWIDNV]
binding result [2]: binds

GVECNHMGLCVSW [phage isolate GVECNHMGLCVSW]
binding result [8]: binds

B4: dimer 17 (D17) (peptide)
peptide 1: AQDWYYDEILGRGGRGGRGGK
peptide 2: VCWEDSWGGEVCFRYDPGGGK
modifications: not fully specified; N-terminal acetyl; C-terminal Lys(JJ-Glut)-NH2; N-terminal acetyl; contains J (8-amino-3,6-dioxaoctanoyl); C-terminal Lys joined to linker K
IC50, VEGF-induced migration of HUVECs [3]: ~250 nM

SYEQWLPQYWAQYKSNYFL [phage isolate SYEQWLPQYWAQYKSNYFL]
binding result [2]: binds

Ac-GSDHHCYLHNGQWICYPFAPGGGK-NH2 (disulfide 6-15 (inferred); not fully specified) [SEQ ID NO:314]
Kd [4]: 150 nM | Kd [5]: 260 nM

Ac-GDDHMCRSPDYQDHVFCMYWDPGGGK-NH2 (disulfide 6-17 (inferred); not fully specified) [SEQ ID NO:295]
Kd [4]: 140 nM | Kd [5]: 480 nM

IDFCKGMAPWLCADM [phage isolate IDFCKGMAPWLCADM]
binding result [1]: binds
